Some targets named below: MtbLigA^G621I (M. tuberculosis, UniProt P9WNV1 1-691, G621I); MtbLigA^G639V (M. tuberculosis, UniProt P9WNV1 1-691, G639V); MtbLigA^G614I (M. tuberculosis, UniProt P9WNV1 1-691, G614I).
Assay in all cases: SPR
Assay [1] deals with Full-length His-tagged MtbLigA (M. tuberculosis, UniProt P9WNV1 1-691).

Numbering of substitutions follows the chain as printed.

B1: GST-tagged MtbXthA (enzyme)
chain: MPDGTIDGGHPQRPASPRLRSPLLRLATWNVNSIRTRLDRVLDWLGRADVDVLAMQETKCPDGQFPALPLFELGYDVAHVGFDQWNGVAIASRVGLDDVRVGFDGQPSWSGKPEVAATTEARALGATCGGIRVWSLYVPNGRALDDPHYTYKLDWLAALRDTAEGWLRDDPAAPIALMGDWNIAPTDDDVWSTEFFAGCTHVSEPERKAFNAIVDAQFTDVVRPFTPGPGVYTYWDYTQLRFPKKQGMRIDFILGSPALAARVMDAQIVREERKGKAPSDHAPVLVDLHAG
What is called Kd is a measure of binding affinity in units of concentration. With B1, the dissociation constant Kd came to 154 nM with MtbLigA^G621I, 2770 nM with MtbLigA^G639V and 781 nM with MtbLigA^G614I.

B2: GST-tagged MtbXthA^ID (interaction-defective triple mutant) (enzyme)
chain: B1 chain with S110A, G111L, K112A
Regarding B2, the results for the Kd (in assay [1]; in the assay with MtbLigA^G639V) were 613 nM and 9010 nM, respectively.

Values taken from publication PMC7530888 (Nucleic Acids Research, 2020).
